The labels stand for the following.
B1: FHR-1 (factor H-related protein 1, FHR-1*B, wild-type) (natural protein)
chain: EATFCDFPKINHGILYDEEKYKPFSQVPTGEVFYYSCEYNFVSPSKSFWTRITCTEEGWSPTPKCLRLCFFPFVENGHSESSGQTHLEGDTVQIICNTGYRLQNNENNISCVERGWSTPPKCRSTDTSCVNPPTVQNAYIVSRQMSKYPSGERVRYQCRSPYEMFGDEEVMCLNGNWTEPPQCKDSTGKCGPPPPIDNGDITSFPLSVYAPASSVEYQCQNLYQLEGNKRITCRNGQWSEPPKCLHPCVISREIMENYNIALRWTAKQKLYLRTGESAEFVCKRGYRLSSRSHTLRTTCWDGKLEYPTCAKR
B2: FH18-20 (domain or fragment)
chain: TSCVNPPTVQNAYIVSRQMSKYPSGERVRYQCRSPYEMFGDEEVMCLNGNWTEPPQCKDSTGKCGPPPPIDNGDITSFPLSVYAPASSVEYQCQNLYQLEGNKRITCRNGQWSEPPKCLHPCVISREIMENYNIALRWTAKQKLYSRTGESVEFVCKRGYRLSSRSHTLRTTCWDGKLEYPTCAKR
B3: FH18-20(LV) (domain or fragment)
chain: TSCVNPPTVQNAYIVSRQMSKYPSGERVRYQCRSPYEMFGDEEVMCLNGNWTEPPQCKDSTGKCGPPPPIDNGDITSFPLSVYAPASSVEYQCQNLYQLEGNKRITCRNGQWSEPPKCLHPCVISREIMENYNIALRWTAKQKLYLRTGESVEFVCKRGYRLSSRSHTLRTTCWDGKLEYPTCAKR
B4: FH18-20(LA) (domain or fragment)
chain: TSCVNPPTVQNAYIVSRQMSKYPSGERVRYQCRSPYEMFGDEEVMCLNGNWTEPPQCKDSTGKCGPPPPIDNGDITSFPLSVYAPASSVEYQCQNLYQLEGNKRITCRNGQWSEPPKCLHPCVISREIMENYNIALRWTAKQKLYLRTGESAEFVCKRGYRLSSRSHTLRTTCWDGKLEYPTCAKR
B5: FH18-20(SA) (domain or fragment)
chain: TSCVNPPTVQNAYIVSRQMSKYPSGERVRYQCRSPYEMFGDEEVMCLNGNWTEPPQCKDSTGKCGPPPPIDNGDITSFPLSVYAPASSVEYQCQNLYQLEGNKRITCRNGQWSEPPKCLHPCVISREIMENYNIALRWTAKQKLYSRTGESAEFVCKRGYRLSSRSHTLRTTCWDGKLEYPTCAKR

What is called Kd is a measure of binding affinity in units of concentration.

This experiment deals with C3b (UniProt P01024 749-1663; P01024 749-1663, biotin (EZ-Link Maleimide-PEG2-Biotin, after 1 mM DTT) where immobilised on streptavidin chips; none where amine-coupled). Description: SPR; biotin-coupled C3b. (In general: In SPR one partner is held on a chip, and binding of the other changes the refractive index at the surface.)
Sequence of C3b (P01024 23-667, chain 1 of 2): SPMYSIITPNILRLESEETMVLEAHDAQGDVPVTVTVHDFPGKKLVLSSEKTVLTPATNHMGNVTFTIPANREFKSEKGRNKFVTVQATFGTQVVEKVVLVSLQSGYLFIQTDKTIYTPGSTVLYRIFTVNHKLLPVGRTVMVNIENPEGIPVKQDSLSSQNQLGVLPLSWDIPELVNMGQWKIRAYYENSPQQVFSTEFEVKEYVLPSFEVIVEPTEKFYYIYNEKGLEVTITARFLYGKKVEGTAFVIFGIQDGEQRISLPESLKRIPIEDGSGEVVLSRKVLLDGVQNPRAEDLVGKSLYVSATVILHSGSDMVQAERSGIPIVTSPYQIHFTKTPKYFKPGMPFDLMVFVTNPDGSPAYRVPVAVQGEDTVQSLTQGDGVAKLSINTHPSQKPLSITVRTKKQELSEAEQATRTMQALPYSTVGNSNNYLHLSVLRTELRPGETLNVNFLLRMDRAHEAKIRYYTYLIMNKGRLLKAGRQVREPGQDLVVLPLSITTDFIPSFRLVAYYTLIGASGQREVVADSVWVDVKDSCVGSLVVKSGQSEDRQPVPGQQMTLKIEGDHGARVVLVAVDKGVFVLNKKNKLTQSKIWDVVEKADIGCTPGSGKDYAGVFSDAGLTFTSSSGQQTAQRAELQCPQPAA
Sequence of C3b (P01024 749-1663, chain 2 of 2): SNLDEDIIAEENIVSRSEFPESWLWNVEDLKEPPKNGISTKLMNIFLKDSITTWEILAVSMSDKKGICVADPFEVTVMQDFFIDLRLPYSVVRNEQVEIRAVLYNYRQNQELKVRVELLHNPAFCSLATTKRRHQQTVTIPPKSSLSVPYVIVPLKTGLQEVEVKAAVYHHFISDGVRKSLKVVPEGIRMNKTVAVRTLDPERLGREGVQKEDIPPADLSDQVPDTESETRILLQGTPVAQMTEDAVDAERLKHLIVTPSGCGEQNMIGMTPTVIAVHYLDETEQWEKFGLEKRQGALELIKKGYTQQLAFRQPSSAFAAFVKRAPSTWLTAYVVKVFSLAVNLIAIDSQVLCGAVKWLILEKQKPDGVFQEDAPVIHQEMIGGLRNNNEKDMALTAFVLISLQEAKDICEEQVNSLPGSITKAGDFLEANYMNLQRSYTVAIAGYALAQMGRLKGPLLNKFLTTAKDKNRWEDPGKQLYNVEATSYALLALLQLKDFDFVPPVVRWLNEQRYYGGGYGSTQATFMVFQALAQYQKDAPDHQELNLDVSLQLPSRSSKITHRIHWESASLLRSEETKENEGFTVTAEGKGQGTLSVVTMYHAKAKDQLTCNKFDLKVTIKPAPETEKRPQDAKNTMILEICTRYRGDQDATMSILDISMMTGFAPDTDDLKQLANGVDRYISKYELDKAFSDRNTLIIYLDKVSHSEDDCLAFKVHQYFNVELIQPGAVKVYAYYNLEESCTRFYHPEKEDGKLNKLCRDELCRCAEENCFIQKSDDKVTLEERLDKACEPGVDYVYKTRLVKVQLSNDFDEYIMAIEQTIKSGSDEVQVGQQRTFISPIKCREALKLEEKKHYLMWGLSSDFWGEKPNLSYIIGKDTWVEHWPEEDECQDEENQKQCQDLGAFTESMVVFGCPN
In turn, B1 yielded a Kd of 0.6 µM.
With B2, the Kd was 9.9 µM.
In turn, B3 registered a Kd of 5.6 µM.
Under B4 stands 5.8 µM.
Under B5 stands 10 µM.

Values taken from publication PMC7959842 (2021).
